Drawing on the supplement of paper PMC9732359, this text covers protein stability index for 40 sequences.

± gives the uncertainty stated by the source.

The data set can be described thus: protein stability index of a GFP-peptide fusion (yeast GPS) (PSI 1-4); higher = more stable; sorted into four equal gates, so the index is relative within each strain. The essentials: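 Tiled 17-residue yeast protein peptides were fused downstream of GFP in a plasmid that also expresses Cherry, and the pooled library was carried in yeast. Mid-log cultures in leucine-free medium were sorted into four equal gates by GFP/Cherry fluorescence ratio, and plasmids from each gate were PCR-amplified and Illumina-sequenced, with reads assigned to strains by barcodes. The protein stability index for each peptide was each gate's read frequency times its gate number, summed.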

For the sequence RSAWNNNNDNDANRNAN [GRR1], the protein stability index (doa10∆) was found to be 2.55 ± 0.041, the protein stability index (pdr5∆) was 2.65 ± 0.036, the protein stability index (san1∆) came to 2.62 ± 0.034 and the protein stability index (ubr1∆) amounted to 2.7 ± 0.039.

For the sequence RSDLQSKIQEIESIRSC [YIL149C/MLP2], the protein stability index stood at 1.89 ± 0.058 (doa10∆), 2.79 ± 0.09 (pdr5∆), 2.67 ± 0.099 (san1∆) and 2.52 ± 0.089 (ubr1∆).

Take RSIRGSFTSQGTISIQL [MTR3]: the protein stability index was 2.78 ± 0.067 (doa10∆), 2.73 ± 0.057 (pdr5∆), 2.77 ± 0.066 (san1∆) and 2.61 ± 0.041 (ubr1∆).

Regarding RSKFLSTVAKFLARVIK [IRR1], the protein stability index was found to be 3.04 ± 0.07 (doa10∆), 2 ± 0.07 (pdr5∆), 2.24 ± 0.11 (san1∆) and 2.2 ± 0.047 (ubr1∆).

With RSLASFEQTAFSRHAQQ [SIR4], the protein stability index was 2.84 ± 0.059 (doa10∆), 2.73 ± 0.045 (pdr5∆), 2.82 ± 0.05 (san1∆) and 2.77 ± 0.05 (ubr1∆).

For the sequence RSNFRVNLSQEALQYDP [SNU114], the protein stability index came to 2.69 ± 0.074 (doa10∆), 2.31 ± 0.09 (pdr5∆), 2.93 ± 0.047 (san1∆) and 3.1 ± 0.088 (ubr1∆).

Consider RSPRVVTNALDNIDEKV [NUT1], for which the protein stability index reads like this: (doa10∆) 2.92 ± 0.056; (pdr5∆) 2.79 ± 0.054; (san1∆) 2.77 ± 0.058; (ubr1∆) 3.03 ± 0.058.

On to RSSSASNEFVPNTSDNN [SWI1], for which the protein stability index is, setting by setting: (doa10∆) 2.72 ± 0.068; (pdr5∆) 2.77 ± 0.09; (san1∆) 2.69 ± 0.059; (ubr1∆) 2.9 ± 0.063.

In the case of RSTDEFNGAQLKAVTVE [RPT5], the protein stability index (doa10∆) was 2.86 ± 0.29, the protein stability index (pdr5∆) was 3.71 ± 0.24 and the protein stability index (ubr1∆) amounted to 2.06 ± 0.19.

In the case of RSTDRDRVKVIECFKPG [CSL4], the protein stability index is, setting by setting: (doa10∆) 3.14 ± 0.14; (pdr5∆) 3.1 ± 0.2; (san1∆) 3.26 ± 0.1; (ubr1∆) 2.99 ± 0.088.

For the sequence RTAKAYLKVSEEEIKKF [PRP8], the protein stability index is 2.98 ± 0.057 (doa10∆), 3.11 ± 0.075 (pdr5∆), 3.12 ± 0.053 (san1∆) and 3.26 ± 0.049 (ubr1∆).

With RTIANQDHFHRLNYLYQ [RPR2], the protein stability index is, setting by setting: (doa10∆) 2.64 ± 0.062; (pdr5∆) 2.88 ± 0.043; (san1∆) 2.73 ± 0.034; (ubr1∆) 2.58 ± 0.026.

As for RTLEAITATLVGTVRCE [CSL4], the protein stability index came out at 1.73 ± 0.12 (doa10∆), 1.91 ± 0.12 (pdr5∆), 1.5 ± 0.14 (san1∆) and 2.47 ± 0.16 (ubr1∆).

RTLLTEEIEPKLEKLRN [SMC2]: the protein stability index by setting is: (doa10∆) 3.02 ± 0.074; (pdr5∆) 3 ± 0.068; (san1∆) 3.18 ± 0.042; (ubr1∆) 3.21 ± 0.054.

Consider RTLTAVHDKVLEDMVFP [RPS7B], for which the protein stability index is, setting by setting: (doa10∆) 3 ± 0.081; (pdr5∆) 3.09 ± 0.069; (san1∆) 2.81 ± 0.068; (ubr1∆) 3.27 ± 0.074.

On to RTMLELITQLDGFDPRG [RPT1], for which the protein stability index turned out to be 2.6 ± 0.061 (doa10∆), 2.81 ± 0.061 (pdr5∆), 2.91 ± 0.066 (san1∆) and 2.73 ± 0.096 (ubr1∆).

Turning to RTTTNTTAEPKAKRAKT [TAF14], the protein stability index (doa10∆) amounted to 2.67 ± 0.28, the protein stability index (pdr5∆) stood at 2.98 ± 0.25, the protein stability index (san1∆) amounted to 3.1 ± 0.088 and the protein stability index (ubr1∆) is 2.59 ± 0.2.

Consider RVHRRNNRWAENNYKKR [RPS23A], for which the protein stability index is, setting by setting: (doa10∆) 3.26 ± 0.29; (pdr5∆) 3.55 ± 0.21; (ubr1∆) 3.54 ± 0.1.

On to RVIVAGTLDINPDDDYG [FAS1], for which the protein stability index was determined as 2.38 ± 0.069 (doa10∆), 2.87 ± 0.073 (pdr5∆), 2.85 ± 0.06 (san1∆) and 2.51 ± 0.058 (ubr1∆).

For the sequence RVMKSLSINEKDFVTMA [YCG1], the protein stability index reads like this: (doa10∆) 2.35 ± 0.073; (pdr5∆) 2.06 ± 0.052; (san1∆) 2.1 ± 0.082; (ubr1∆) 2.16 ± 0.042.

As for RVQLSGKIQENIPFWKH [SRP72], the protein stability index was 2.56 ± 0.071 (doa10∆), 2.44 ± 0.067 (pdr5∆), 2.13 ± 0.07 (san1∆) and 2.4 ± 0.041 (ubr1∆).

RVRAESLHSNSFSLTVS [YJL039C/NUP192]: the protein stability index (doa10∆) worked out at 1.74 ± 0.066, the protein stability index (pdr5∆) came out at 1.76 ± 0.072, the protein stability index (san1∆) came out at 1.43 ± 0.17 and the protein stability index (ubr1∆) is 1.75 ± 0.064.

For the sequence RVRTDDSVLLNRGNKKR [YML031W/NDC1], the protein stability index was determined as 3.29 ± 0.13 (doa10∆), 3.4 ± 0.16 (pdr5∆), 3.08 ± 0.058 (san1∆) and 3.3 ± 0.097 (ubr1∆).

Turning to RYDCSFCGKKTVKRGAA [RPL43A], the protein stability index reads like this: (doa10∆) 2.07 ± 0.066; (pdr5∆) 2.13 ± 0.071; (san1∆) 2.21 ± 0.11; (ubr1∆) 2.12 ± 0.053.

On to RYFFWLQEKNSGNLPLN [RPN13], for which the protein stability index reads like this: (doa10∆) 3.04 ± 0.16; (pdr5∆) 3 ± 0.085; (san1∆) 2.81 ± 0.063; (ubr1∆) 2.87 ± 0.11.

For the sequence RYKPKSHLWEIDIPLDE [RPC37], the protein stability index is 2.81 ± 0.23 (doa10∆) and 3.03 ± 0.22 (san1∆).

For the sequence SAAINNEDARAIFNNEF [RPN4], the protein stability index is, setting by setting: (pdr5∆) 3.21 ± 0.23; (san1∆) 3.04 ± 0.27.

Take SADYEILYEIRALYTPF [YDL116W/NUP84]: the protein stability index worked out at 1.86 ± 0.073 (doa10∆), 2.21 ± 0.068 (pdr5∆), 2.5 ± 0.07 (san1∆) and 2.06 ± 0.066 (ubr1∆).

Turning to SAINQYNRRQDKKNKRL [SNF2], the protein stability index runs as follows: (doa10∆) 3.13 ± 0.083; (pdr5∆) 3.34 ± 0.082; (san1∆) 3.23 ± 0.074; (ubr1∆) 3.25 ± 0.087.

In the case of SAKNRVVILARAKALGI [RPL32], the protein stability index runs as follows: (doa10∆) 1.69 ± 0.05; (pdr5∆) 1.74 ± 0.061; (san1∆) 1.76 ± 0.081; (ubr1∆) 2.05 ± 0.042.

For the sequence SAKPTFSFSKSEEERKS [YOR098C/NUP1], the protein stability index runs as follows: (doa10∆) 1.96 ± 0.14; (san1∆) 1.93 ± 0.24; (ubr1∆) 2.79 ± 0.25.

For the setting “doa10∆”, SAKQTAPNNSNGGSEEE [MED7] had a protein stability index of 3.45 ± 0.27.

In the case of SALTSPTDSSKILQKRS [SIR3], the protein stability index is, setting by setting: (doa10∆) 2.99 ± 0.053; (pdr5∆) 3.12 ± 0.054; (san1∆) 2.92 ± 0.047; (ubr1∆) 3.04 ± 0.039.

Consider SAPPPALPHVEINQVSL [RGR1], for which the protein stability index turned out to be 2.46 ± 0.074 (doa10∆), 2.96 ± 0.11 (pdr5∆), 2.48 ± 0.09 (san1∆) and 2.33 ± 0.052 (ubr1∆).

For SATSKPAFSFGAKPEEK [YJL041W/NSP1], the protein stability index (doa10∆) amounted to 3.1 ± 0.15, the protein stability index (pdr5∆) is 3.31 ± 0.22, the protein stability index (san1∆) was found to be 3.16 ± 0.11 and the protein stability index (ubr1∆) was found to be 2.55 ± 0.14.

For the sequence SCGEEEFFSTNWLSIFN [REC8], the protein stability index runs as follows: (doa10∆) 3.33 ± 0.098; (pdr5∆) 3.29 ± 0.073; (san1∆) 3.34 ± 0.1; (ubr1∆) 2.96 ± 0.087.

Consider SCIAVMAGLMHFKKPDI [RRP45], for which the protein stability index runs as follows: (doa10∆) 2.02 ± 0.062; (pdr5∆) 1.66 ± 0.053; (san1∆) 1.77 ± 0.08; (ubr1∆) 1.69 ± 0.035.

Turning to SDDQQEAVELVIGLDSE [YML103C/NUP188], the protein stability index is, setting by setting: (doa10∆) 2.9 ± 0.17; (pdr5∆) 3.54 ± 0.12; (san1∆) 3.39 ± 0.12; (ubr1∆) 3.38 ± 0.045.

For SDEEEVTEMSNNANVLG [BRR2], the protein stability index was found to be 3.03 ± 0.065 (doa10∆), 3.1 ± 0.049 (pdr5∆), 2.83 ± 0.063 (san1∆) and 3.17 ± 0.046 (ubr1∆).

Regarding SDFISKLEYPHTDVSSS [RPN3], the protein stability index is, setting by setting: (doa10∆) 2.56 ± 0.047; (pdr5∆) 2.88 ± 0.054; (san1∆) 2.82 ± 0.047; (ubr1∆) 2.5 ± 0.045.
